B1: Sf6 terminase small subunit gp1 R48A mutant (natural protein)
chain: MATEPKAGRPSDYMPEVADDICSLLSSGESLLKVCKRPGMPDKSTVFAWLAKHEDFRDKYAKATEARADSIFEEIFEIADNAIPDAAEVAKARLRVDTRKWALARMNPRKYGDKVTNELVGKDGGAIQIETSPMSTLFGK
B2: Sf6 terminase small subunit gp1 E73A mutant (natural protein, Shigella phage Sf6)
chain: MATEPKAGRPSDYMPEVADDICSLLSSGESLLKVCKRPGMPDKSTVFRWLAKHEDFRDKYAKATEARADSIFAEIFEIADNAIPDAAEVAKARLRVDTRKWALARMNPRKYGDKVTNELVGKDGGAIQIETSPMSTLFGK
B3: Sf6 terminase small subunit gp1 K59E mutant (natural protein)
chain: MATEPKAGRPSDYMPEVADDICSLLSSGESLLKVCKRPGMPDKSTVFRWLAKHEDFRDEYAKATEARADSIFEEIFEIADNAIPDAAEVAKARLRVDTRKWALARMNPRKYGDKVTNELVGKDGGAIQIETSPMSTLFGK
B4: Sf6 terminase small subunit gp1 D19R mutant (natural protein, Shigella phage Sf6, UniProt Q716H4 1-140, looked up)
chain: MATEPKAGRPSDYMPEVARDICSLLSSGESLLKVCKRPGMPDKSTVFRWLAKHEDFRDKYAKATEARADSIFEEIFEIADNAIPDAAEVAKARLRVDTRKWALARMNPRKYGDKVTNELVGKDGGAIQIETSPMSTLFGK

How the values were obtained:
crystal structure = target: the molecule itself; experiment: crystal structure
SEC = target: the molecule itself; experiment: SEC

Protein	binding result (crystal structure)	stoichiometry N (SEC)
B1	binds	
B2		8
B3	binds	
B4	binds	

Source: article PMC3572731 (Journal of molecular biology, 2012)
